In a protein production outcome set (Wang et al. 2014) one finds protein production data, which are given here for 17 sequences.

A short description of this series: label from the status in PepcDB records.
Take “LIIFCLLSVVAAAAYFSFSHWAIRHETLTFFDESRGRPVAIDLAVRRDAEMKAEAGMVTLPVAVVSHGNTVKNTEYSFLANVLAARGYLVASIQHDLPDDKPLMTVAGSLYVGRLAVYERGEKNIFFALKELKKLEPNADYDHLTLVGHSNGGDISMFFAQQHPEMVRRVVTLD”: the protein production entry is “failed”.

In the case of “MFHFSLSPRRTGRGARPRARLGAMLALAFLAGGLTAGPGNAAEGAGATAERQYCACMALARSRPDQAFEKAGQWKALGGGVPARHCEAVALLGLKEYGEAARRLEALAEDVKLARGLRVDLLTQAGQAWLAVGDLSRAYANQTTALQLAGARAQSGAPALSSVLPDLYIDRAVTLAQAGRDDEATTDLTKALALQPASVTALVLRASAQRRQGRLTAARADAEAAVKRAPNDAEARLERGDVRLALGDRDGARADWLKVLELAPREGAADAARARIETLDLKVR”, the protein production entry is reported as “failed”.

Turning to “MAKNTLSFVCQNCGAAYNRWQGKCESCGEWNTLAEEDTSGSVPVSIRSKRKGRTFALESLAGKSPDAPRLSSGMTELDRVTGGGFVRGSVLLVGGDPGIGKSTLLTQATSLMARAGHRIVYISGEEAIAQVRLRAERLGLSDAPVQLAAETSVEDIVSTLSEGAVPRLIVIDSIQTMWTDTVESAPGTVTQVRASAQALIRFAKKTGAAIILVGHVTKDGQIAGPRVVEHMVDAVMSFEGEGSQQFRILRAVKNRFGPTDEIGVFEMTGLGLREVTNPSELFLSERDLGTPGTAVFAGIEGTRPVLVELQALVAPTSLGTPRRAVVGWDPSRLSMVLAVLEAHCGVKLSGHDVYLNVAGGLRIHEPAADLAAAAALVSSLVNAQLPTDAVYFGEISLSGVVRPVAQTPARLKEAAKLGFQRAVLPESARGEAGGDAGLSLNAVNSLTTLVAEIAARGSRRGESGGSAEKNATPARFRRGEGLEHHHHHH”, the protein production entry was “failed”.

In the case of “MKRIKTRAITLLALCIALNIVGSNIALMLKLPIYLDSIGTVLAAAVFGPLGGMLAGGATGVIVGATTDLYSLFFMPVQLLTGLVAGLLYRRIKPGTWRSNWWLAGVISLPGTLLSTAITVILFHGITSSGSSMLVQLLLGTGMGKTMAVFLIQVGTDYLDRFITVYVVALVYRALRYKLPQAN”, the protein production result was “failed”.

Take “MSEYLPIIIPSVFLVIPSIAILYMEKRFSTAVYTAVIGLLISFLSFTLFFSLGYYNYGVFNNALYLTKFGYFIAISSLIATILVVLGSSNDLKNWETGTSFLSLSLLTNIGVIYLAFAYNVLVIFASWAIASAATYVIAMLKKDYQSVEAGVKYLVMGLLSSSLMIIGLAFFVTAGNTLYLDPVISYQPLIVLSIIFFSIAFLFKIGAFPFQGWLPEVYSLADRFSVGFVSSVGKIVGIEPLLVILYYLIQDNSSSQVIYLTVVILFSIISVLSLIFGNISAFSRKDFAQILAYSSITQVGFMVIGIAMLPVNMNIAISGLMVYLLSYSIAQAGLFVSLSHVEKITGSSYFESFRGMSSGDRVLAFSMTILLLSLLGIPPILGFWAKLFVLESSFSQPWLTIIGFINSAISAGYYIPPIREIFREGQFKKVDSPERDSVIVAAVLSIALGIISPLIFGVLV”: the protein production result was “failed”.

“MIQKQHESKLEVGQTFPVTIKRLGINGEGVGYFKRQVVFIPGALPGEEVVAETTKIQRGFAEAKVKKVRKASPHRVKAPCPVYEECGGCQLQHLDYKEQLNQKRDIVVQAFEKYMKNSMEEKIRPTLGMENPWHYRNKSQLQVGRKDEKVITGLYKQNSHQLIDIAHCMIQHKATNEATKVVRRILEKLNVSIYNEKKQKGLVRTIVTRTAVQTGEVQVTLITTKEELPNKEQFIAEVQKQMPAVKSIMQNVNWRKTSVIFGDKTFKLAGKEVIQETLGDLSFELSARAFFQLNPEQTVVLYNEAKKAAALTGNEKIVDAYCGVGTIGLWLANDAAEVRGMDVIPEAIADARKNAKRHGFTNTKYEAGKAEQWLPKWVKEGWRPDVIVVDPPRTGCDDKLLETILKVKPKQVVYVSCNPSSLARDVQALMKSYEVEYVQPVDMFPHTAHVENVVKLTLK”: the protein production result was “failed”.

As to “MTTKLDPEALNVSEEARERGTGYLNVALFGVDSRDNELEKDTRSDTIMIASLNRETMEVKISSVYRDTLLEQSDGTLNKANAAYSFGGPETAVAMLNKNLDMDIEHYVTVNFNSLIDVIDAVGGVEIDVQEEEIPYICGYAMEIMRVTGRESAGVTEPGVQTLNGIQATAYARIRYTAGDDFKRAERQRDVLTKIVGKLQGASLAQINKIIDKVFPEVSTNFTLAEILEYAKDAFDYKLGETIGFPFDKTTDTLANIGSVVIPVTLDKNVEQLHKFFYGEGDTYSPSSTVNTISGKIVAKAGDRQADTDEDSQGIMQQPDESYTGGGSSGGTKTPSSGGTSGGSSQPTPTPTPTPTPTPEPDPQPQPDPGGDDGSGGSGGDTSGGGAEGTPDAGTQLEHHHHHH”, the protein production result is recorded as “failed”.

For “MSLVAARPLVLVVDDNAVNREALILYLKSRGIDAVGADGAEEARLYLHYQKRIGLMITDLRMQPESGLDLIRTIRASERAALSIIVVSGDTDVEEAVDVMHLGVVDFLLKPVDLGKLLELVNKELKIGEGHHHHHH”, the protein production result is “not failed”.

For “ARLEPLLIGGLYPKNLEDRILIKLDQAPPYLLDGLVAVEDRDFYHHFGVSPKSIARAIWVNTSQGQMRQGGSTLTQQLVKNFYLTNERSLSRKLTEAMMAVLLEIHYSKQEILEAYLNEVFVGQDGQRAVHGFGLASQYFFSQPLSELKIHQVAMLVGLVKGPSFYNPRRNP”, the protein production result was “failed”.

For “MATRMTTIRRQTKMAIGQRIKYFRNRIGMTQKQLGEQLGFKGKTSDVRMAQYESEARVPKIDLVKQMSQIFDINTHALTVPDIDTHIGLMHTLFALEDMYGLKVKNVDGQPHLWLDSSISAPSSSVDEMFRAWMEQADKLENGEISKEEYDEWRYKYPELDTYQKRAKVPSQELSDYLVKELTKKEK”, the protein production entry is “failed”.

On to “MKKIHLNKWKHKTSLYLMLFCLSLPLALTPLSVSATEKETESEQTAPTSQKDASETTSETQTVESSTNDQNQNNSTISLPESSSTTSLAPSESLTSDSKKLAQKEEVVASTTVAEPKAAASSTISVPDPNLKQTILSTLGLATTAELTQTDMDKLTNLTLNSVDIYSLVGLEHATNLSSIYINVNNKITDFTPLESLTKLTFVTLQTSSLTSDNFPNLTASQGLTNLSIGGTSVDNSVLAKIVNLKALVRLYMDSNMNITNIEPLKVLPNLKSLSVQFCGITDFTVIKDFPIMSDLAAFGQNTGRNDPPTTVTRSSLKYNEDEQSVYIPFSMMPNRMTNFDGYIPPFSTSNSASNTYFDFNGTQLPASRLQIDDNGITINSVSPEEYQGIKSFEYNARLNNPAGTYAVPDGYTFYAISSGTYLHQFDVVDDGAPVTVKYQDENGQELAPSELLNGYVGATYNSKELSFQGYSLIKVDGDATGKFTDSPQTVTYIYQKNAKLLGQVTVKYIDTDGKALFGDVIQTGNIGETYHTEKKELTGYTFKNIIGNASGQYTNSPQTVTYVYEKNANPNKPEEVIPDSSDKNNVNPDSRENETTKGSKTVKDKESVVTSKEKNLPETGDKEQGMKKITLFGSFLLILGSLVLFIRFRKVD”, for which the protein production entry is “failed”.

Take “AESLSGLSLKLVKKEPRQLELTWAGSRPRNPGGNLSYELHVLNQDEEWHQMVLEPRVLLTKLQPDTTYIVRVRTLTPLGPGPFSPDHEFRTSPP”: the protein production entry is “not failed”.

As to “MSSVGDFEEIILHDLKPYYHVPGAIHSEGITFVKETGTLLWVDIFKGEVHKVEDIEQPESSHSFFSISRANYGKNASIEYPPNPDELKESVGCIFPILDGASQNEIKQVLFGSKFGIGKLDFSKSEWEYVILYSECPELSTDRAYKLRSNDGNVSPDGKYIYVGLMSDFPFDLEPIGCLLRVDLLAHKIELVWNCLLIPNAIHWDESDQKTMYVTDSLNFTIWKCPGGDLLKRDELIDVKNSNNQSFESPEPDGSAIWFSKDGKHSGFLFITVWSTSKVQMFDLTNGKLLKEFILPEQTPRVSCCCFVGKDLFVTTANAEINDAVRTNTDKNGGCIYKIPNVLDGNVPLESTKRQPLH”, the protein production result is on record as “failed”.

As to “MPTVLRWTRTMCKRPTCRVRQAWLVLPITGRWPSGGVSMKHACMLDSALPKPSQHSLRRQLNAIKREQFPWMSEVTKNAPQMAIIQLGRAFQNFFAGRAKYPKFRKKGMHDRFTLTNDQFDLEASRIRIPRLGWVRMRETLRFAGKIMLATVSRVAGRWFVSITVDVPDPSHLPQAENQGTVGVDLGVLVLATLSTGETVCGPRPHRALLGRVCRLSRSVLRKVKGSANRHKAKATLANLHARIAAIRLDALHTLTSDLTRRFHTIGIENLNVKGMLRNRHLARSIADIGFFEFRRQLEYKAMMRGGQVVVANRFFASSKRCLTCGHTLNELPLSVRQWACPACGARHDRDVNAAVNLKNMAVSSTVSACGEEGAGPRRKTAVGEAGSQLLEHHHHHH”, the protein production entry is given as “failed”.

As for “QGLLRAIPSITEDMPRLPTIPGNPPSALINHQGCPFRDRCDYRLARCQAETPKFMPLNGRQSIACHVKAQSSISLIHQSA”, the protein production entry is “failed”.

On to “MNQGKIITVSGPLVVASGMQEANIQDICRVGHLGLVGEIIEMRRDQASIQVYEETSGIGPGEPVVTTGCPLSVELGPGLISEMFDGIQRPLDRFQKATDSDFLIRGVAIPSLDRKAKWAFIPKLSVGQEVVAGDILGTVQETAVIEHRIMVPYKVSGTLVAIHAGDFTVTDTVYEIKQEDGSIYQGSLMQTWPVRQSRPVAQKLIPVEPLVTGQRVIDTFFPVTKGGAAAVPGPFGAGKTVVQHQIAKFANVDIVIYVGCGERGNEMTDVLNEFPELIDPNTGQSIMERTVLIANTSNMPVAAREASIYTGITIAEYFRDMGYSVAIMADSTSRWAEALREMSGRLQEMPGDEGYPAYLGSRIAEYYERAGRVRTLGSQEREGTITAIGAVSPPGGDISEPVTQNTLRIVKVFWGLDAPLAQRRHFPAINWLTSYSLYQDDVGSYIDRKQQSNWSNKVTRAMAILQREASLEEIVRLVGLDSLSEQDRLTMAVARQIREDYLQQNAFDSVDTFTSFPKQEAMLTNILTFNEEASKALSLGAYFNEIMEGTAQVRDRIARSKFIPEENLEQIKGLTQKVTKEIHHVLAKGGI”, for which the protein production entry is “failed”.

For “MHDTIPEYIRDGAQDMLAQGGVQKLGLKKEGGTWEIDGSIQSDDFQIYVSRISLTPSEHRASYVCNCSDSFSGVCRHVAATALKMLSTFDTRPGSDEPAKPRVEWRQSFRSFFSTALDPEPGKHYLIFRFHPEPGRLTVAFFRARQNKSGLSTVHNEITLEQIINNPEWCELSPQLVDVAKQVGQFVDYYGHRIEIPDGLVSWFFWAIRREYYLFWLDTESPCRIENTALGLKLHPRLGDDGLSFDVMLYREGKPPFSILGGENAATFHGQMPMWVCWNRSFYPVQTSLPPQLVQDLIRQHPSIPQEDMSEFLDRVWTRLPSSDLYGQEDFLKLMEPVFQPARYSPKLFLDEEGSLLTLEIQNVYETAHGEFYLAGPNPDFQTGSYTFEGTTFLIRRHQDEEAGLITQLSEMRFQPRSSRLWFLEPEEAIAFLLDAYPRLVEKYRVYGEKALSRYKVRLSQPVITAKVESNEEEKWFSLDIDVEYDGQKVPIDKIWKAWSQGKRYVQLKDGSYTSLPETWLERLGHKLQALGLDPDKPPQKQFKQFEAPVLDSLLDDLPGAETDSFWNSLRDKIRTFREIRAVNAPRGLNATLRGYQMQGLAYLNFLREYGFGGILADEMGLGKTVQTLSFVQHMVESGKIGPNLIVVPTSVLPNWEREAQKFVPELKRLIIYGTRREGMFKLIDESDLVVTTYALLRRDLEELQNHTFNCIILDEAQNIKNPNTITARSVRRIKADMRLCLSGTPIENNLFELWSLFEFLMPGFLGSQHAFQRGVIKPIKDGDCETLDYLRTRVRPFILRRTKSEVAKDLPPKIENTYYCALAEEQAELYTALARKLKEQVLADVDEKGLAKSQMSILDALLKLRQICCHPRLLKLDMPGFSTNLPSGKFDAFKDMITDIVEEGHKVLVFSQFVQMLHIIRSWLQISGTPFCYLDGTSKDRFEQVDKFNNSPDIPIFLISLKAGGTGLNLTSADYVIHYDPWWNPAVESQATDRTHRIGQTRQVFSYKLICQNTVEEKILKLQDMKRGVAEAIIPGQETWKSLTREDLEMLFDI”, the protein production result is reported as “failed”.
